Source: the supplement of paper PMC10126150
± gives the standard deviation of the averaged measurements.

Tested on: ATP
Experiment: switch fluorescence ratio, 500 uM ATP over buffer (Cy3 cluster intensity, sum of 5 cycles each) (fold (ratio)); higher = stronger signal-on switching upon ATP binding; sequences stand for … in TCGTCGGCAGCGTCAGATGTGTATAAGAGACAGTTTTTTTTTTTTTTTTTTTTTTTTT…TC
Conditions: aptamer strand: ATP DNA aptamer (quencher-CACCTGGGGGAGTATTGCGGAGGAAGG + anchor), 100 nM annealed; ATP concentration: 500 uM
Method in brief: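 Clusters carrying Cy3-labelled switching strands on a modified Illumina MiSeq flow-cell were annealed to 100 nM quencher-labelled ATP aptamer and imaged in selection buffer. They were imaged again after 15 min with 500 uM ATP at 22 °C, over five buffer/ATP cycles with NaOH stripping and re-annealing in between. For each cluster, the fluorescence ratio is the summed Cy3 intensity of the target cycles divided by that of the buffer cycles, averaged per switch-domain sequence. Clusters outside 100-1000 RFU were left out.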
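Further: ATP exposure 15 min at 22 °C before imaging.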

Row | Sequence | switch fluorescence ratio
1 | CCAGCATAAT | 1.41 ± 0.05
2 | AAAAGACCCT | 1.04 ± 0.071
3 | TGGTTGAATA | 0.998 ± 0.05
4 | TAGGGCGAGG | 0.9899 ± 0.001
5 | CGAGGGTAGA | 1.01 ± 0.03
6 | ATGGAGTAAC | 0.987 ± 0.011
7 | TCGCCTGGCG | 0.972 ± 0.034
8 | TAGTCGGTGG | 0.9978 ± 0.0032
9 | AGTATTTCGT | 0.987 ± 0.031
10 | TTTAGCATGT | 1.04 ± 0.073
11 | GGTTGCTAGG | 0.9916 ± 0.0037
12 | CGGGCTTGGC | 1.01 ± 0.0022
13 | TGACAAAGA | 1 ± 0.022
14 | TGTGGCAATT | 1.07 ± 0.037
15 | CTTTGTAGGG | 1.008 ± 0.0029
16 | CTGGGCGGGG | 1.01 ± 0.026
17 | GGGCTAGTCA | 0.965 ± 0.019
18 | TAATGAGTGC | 0.997 ± 0.04
19 | CATTGTAATT | 0.981 ± 0.011
20 | GATATGATCA | 0.9733 ± 0.0052
21 | AATATGTATC | 1.003 ± 0.0029
22 | AGAGGGCCGG | 1.03 ± 0.072
23 | TTGATTTTAG | 1 ± 0.031

Row | Sequence | switch fluorescence ratio
24 | CGGACTCGTG | 0.954 ± 0.021
25 | ATCTCGGTTG | 1.019 ± 0.0085
26 | CGATGCTCCG | 0.932 ± 0.024
27 | GAAAGGCAAA | 1.025 ± 0.0026
28 | AAATGAATGG | 1.0177 ± 0.00097
29 | ACTATGAAAA | 1.037 ± 0.0011
30 | AAACTTAGCA | 1.02 ± 0.012
31 | TAATAGGGTG | 1.08 ± 0.042
32 | CGCCATTTTT | 0.9822 ± 0.0022
33 | GGGGGGCAGA | 1 ± 0.029
34 | TGTTTAATTG | 0.97673 ± 0.0004
35 | TCCTTCGGCG | 1.3 ± 0.078
36 | CTTGAGTGTG | 0.9827 ± 0.006
37 | CATTATGGGT | 0.95 ± 0.013
38 | AAAGCACTTT | 1.099 ± 0.0022
39 | GATGTTTTGA | 1 ± 0.018
40 | GATTTCTCGT | 0.9551 ± 0.0021
41 | TGTGGGGGGT | 0.992 ± 0.027
42 | GGCTACAGGG | 0.999 ± 0.011
43 | GTTGTTTCGT | 1 ± 0.017
44 | CCTACATTG | 1 ± 0.02
45 | TCTGTTTACG | 0.996 ± 0.016
46 | GATTGGGCTC | 1.02 ± 0.036

Row | Sequence | switch fluorescence ratio
47 | ACAGCGGGGG | 1.03 ± 0.045
48 | GGAGCCTGGT | 1.01 ± 0.022
49 | TTAATTCCGT | 1.02 ± 0.032
50 | GTTTGTGAAT | 0.9814 ± 0.0086
51 | AAATGTGGAA | 0.994 ± 0.018
52 | TTCACCCGTC | 0.971 ± 0.023
53 | GGGGAAAACT | 1.01 ± 0.022
54 | GAAAAAGGCG | 1.01 ± 0.043
55 | GGGAAACGGT | 1.03 ± 0.011
56 | TGAACGACGG | 1.02 ± 0.073
57 | ACATTGCGAC | 1.137 ± 0.0028
58 | AATTATGTCA | 1.01 ± 0.022
59 | ATGGTTTGGT | 0.997 ± 0.024
60 | CGCTGTAGGT | 1.02 ± 0.0058
61 | AATTGTATTA | 0.973 ± 0.041
62 | AGGCGGGGAG | 1.02 ± 0.026
63 | TATGGGCACG | 0.99 ± 0.024
64 | TTATGAGATA | 0.996 ± 0.035
65 | AACGAGTGGG | 1.03 ± 0.019
66 | TACTTAAAGT | 1 ± 0.022
67 | GGCAGCCGGC | 1.03 ± 0.041
68 | AATGGGATAG | 1.02 ± 0.021
69 | GGGGTCAGGG | 1.02 ± 0.026

Row | Sequence | switch fluorescence ratio
70 | TTGAATTTAG | 0.986 ± 0.015
71 | AGGCCGGAAG | 0.9945 ± 0.0095
72 | TAGCGAATAG | 1.19 ± 0.043
73 | GTTCCTTAGG | 1.01 ± 0.026
74 | TTGGGTAATA | 1.05 ± 0.087
75 | TAAGAGAATT | 1.02 ± 0.023
76 | GATGAGGTGC | 1.07 ± 0.024
77 | CGACCTACAG | 1.02 ± 0.02
78 | CGTGGGCGTG | 0.9797 ± 0.0013
79 | CATCTTAGTG | 1.02 ± 0.057
80 | TTAGGCCGGG | 0.998 ± 0.041
81 | CCTCGCGGGA | 1.8 ± 0.028
82 | GCAACGGCGG | 1.01 ± 0.054
83 | TTTTGGGGGG | 1.02 ± 0.081
84 | TTTACCTATA | 1.02 ± 0.013
85 | TGGAAGATGG | 1.01 ± 0.03
86 | TGAGGTAACG | 0.992 ± 0.029
87 | TCTTAAGTGC | 1.07 ± 0.026
88 | TTCGTTCTTG | 0.9641 ± 0.0076
89 | GGTTGAGGGG | 0.985 ± 0.034
90 | GTGATACGGG | 1.04 ± 0.021
91 | TTCCGACTTA | 1.14 ± 0.19
92 | GCCATTAGAC | 1.04 ± 0.049

Row | Sequence | switch fluorescence ratio
93 | GAGTACTGAG | 1.163 ± 0.0012
94 | TATAGTTTTG | 0.996 ± 0.021
95 | TTCGTTTCGG | 1.01 ± 0.037
96 | GCGTCTAAGG | 0.981 ± 0.021
97 | TGGTATTTGG | 0.949 ± 0.046
98 | TTTGCCTTTT | 1 ± 0.042
99 | GCCCTGCAAT | 1.17 ± 0.056
100 | TTTCGTGTGT | 0.97 ± 0.0097
101 | GATTTCATG | 0.993 ± 0.019
102 | CGGGCCATAG | 1.03 ± 0.044
103 | TAGACCGTTC | 1.108 ± 0.0068
104 | CCGGTTGCAT | 4.54 ± 1.9
105 | AAGTTTTTCG | 1.01 ± 0.014
106 | GATTGGTTCC | 1.05 ± 0.036
107 | CGTTGTATCT | 1 ± 0.035
108 | ATGTAATCTA | 0.961 ± 0.036
109 | TCGGCGGGAG | 1.01 ± 0.042
110 | ACCATCAGCG | 1.038 ± 0.0019
111 | CCCATTTGTA | 1 ± 0.026
112 | TCGTTACGGG | 1.17 ± 0.26
113 | GGGGCTGTGC | 0.976 ± 0.034
114 | AGTTATCGAA | 1.009 ± 0.0036
115 | GTGAGTCGGG | 0.987 ± 0.02

Row | Sequence | switch fluorescence ratio
116 | CATGTGGTCA | 1.03 ± 0.046
117 | AAGGCAGGTC | 1.02 ± 0.029
118 | AAGAGTGCGG | 0.9742 ± 0.0074
119 | TAGGGGAAAG | 0.99 ± 0.052
120 | CCAAAAAAAG | 1.03 ± 0.032
121 | ACGGAATATT | 1.171 ± 0.0019
122 | ACGATTATTC | 1.07 ± 0.039
123 | GCGGTCCACG | 1.02 ± 0.022
124 | TGGGATGCAT | 0.991 ± 0.034
125 | TAAGGCTTAT | 0.988 ± 0.016
126 | TTTTTGGCAT | 1.01 ± 0.033
127 | TGGTCGGGGT | 1.01 ± 0.013
128 | GGCTGGATGG | 0.961 ± 0.014
129 | GGTGGTAGGC | 1 ± 0.046
130 | TTGTTGTTTG | 1.03 ± 0.025
131 | AAAGGTAACG | 1.001 ± 0.0021
132 | ATGGTGGGCT | 0.9811 ± 0.0032
133 | TGGCATTTCC | 1.18 ± 0.11
134 | TGGGGCCGAT | 1.02 ± 0.021
135 | TAATCACGGG | 1.09 ± 0.017
136 | GGAATAAATG | 1.021 ± 0.009
137 | AATAGAAGGA | 0.9888 ± 0.0037
138 | GGCTAGACGT | 1.031 ± 0.0023

Row | Sequence | switch fluorescence ratio
139 | TTGTTTGCCT | 1.04 ± 0.037
140 | TAGCCAGGGG | 1.2 ± 0.076
141 | GCCGAAAATA | 0.988 ± 0.012
142 | TTGAAATAGG | 1.03 ± 0.011
143 | ACTTATGTGG | 0.974 ± 0.018
144 | AGGGAGGGTT | 1 ± 0.039
145 | AAATGTTTAT | 0.9804 ± 0.0017
146 | AGCTGGCTAA | 0.967 ± 0.014
147 | GTAAAGGGCG | 0.973 ± 0.021
148 | GAGGCTCGGA | 0.982 ± 0.029
149 | CTGGCACGGA | 1 ± 0.063
150 | GGTTTCCTGG | 0.971 ± 0.031
151 | TAGCTGAGTT | 0.984 ± 0.014
152 | GTGGAAGGCG | 0.975 ± 0.03
153 | ATTTTTGGGA | 0.981 ± 0.028
154 | GGAAGGGAAA | 0.981 ± 0.029
155 | AGGAGGACGT | 0.964 ± 0.06
156 | TTATCGGTTG | 1.03 ± 0.043
157 | TTAAACCGGT | 1.03 ± 0.037
